B1: RHOBTB3 (parent)
chain: STTEGIQLAKELGATYLELHSLDD
B2: FAM189A2 (parent)
chain: CALNALTTTVCLVAAALRYLQIFA
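Note: lentivirally expressed fusions sorted by FACS into six bins by GFP to DsRed ratio, PSI derived from sequencing read proportions per bin multiplied by bin number.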

Variants of B1 are the subject of one series. The series can be described thus: protein stability index of a GFP-peptide fusion (GPS, HEK-293T) (PSI 1-6); higher = more stable. To be noted: c terminus: a fixed tail appended.
Turning to STTEGIQLAKELGATYLELHSLDH [D24H], the protein stability index amounted to 2.44.

With STTEGIQLAKELGATYLELHSLDR [D24R], the protein stability index stood at 2.26.

The variants in the next series derive from B2. The series is described as above. The settings on record: c terminus: a fixed tail appended.
As for CALNAITTTVCLVAAALRYLQIFA [L6I], the protein stability index was 1.47.

For the variant CALNAPTTTVCLVAAALRYLQIFA [L6P], the protein stability index is 3.83.

In the case of CALNAMTTTVCLVAAALRYLQIFA [L6M], the protein stability index was found to be 4.19.

As to CALNADTTTVCLVAAALRYLQIFA [L6D], the protein stability index was 3.49.

Turning to CALNAFTTTVCLVAAALRYLQIFA [L6F], the protein stability index amounted to 1.13.

As for CALNATTTTVCLVAAALRYLQIFA [L6T], the protein stability index was determined as 2.87.

On to CALNANTTTVCLVAAALRYLQIFA [L6N], for which the protein stability index stood at 3.48.

In the case of CALNAATTTVCLVAAALRYLQIFA [L6A], the protein stability index turned out to be 2.83.

Consider CALNAQTTTVCLVAAALRYLQIFA [L6Q], for which the protein stability index stood at 2.83.

Consider CALNAGTTTVCLVAAALRYLQIFA [L6G], for which the protein stability index turned out to be 4.13.

Take CALNACTTTVCLVAAALRYLQIFA [L6C]: the protein stability index is 2.11.

For the variant CALNAYTTTVCLVAAALRYLQIFA [L6Y], the protein stability index was 3.27.

Consider CALNARTTTVCLVAAALRYLQIFA [L6R], for which the protein stability index stood at 2.87.

In the case of CALNAKTTTVCLVAAALRYLQIFA [L6K], the protein stability index was 1.77.

Take CALNAWTTTVCLVAAALRYLQIFA [L6W]: the protein stability index was 3.2.

Take CALNALATTVCLVAAALRYLQIFA [T7A]: the protein stability index was found to be 3.07.

On to CALNALCTTVCLVAAALRYLQIFA [T7C], for which the protein stability index was found to be 3.6.

Consider AALNALTTTVCLVAAALRYLQIFA [C1A], for which the protein stability index is 2.05.

Take TALNALTTTVCLVAAALRYLQIFA [C1T]: the protein stability index was found to be 3.21.

Regarding LALNALTTTVCLVAAALRYLQIFA [C1L], the protein stability index amounted to 1.59.

For the variant PALNALTTTVCLVAAALRYLQIFA [C1P], the protein stability index was determined as 1.11.

In the case of VALNALTTTVCLVAAALRYLQIFA [C1V], the protein stability index is 1.85.

For the variant HALNALTTTVCLVAAALRYLQIFA [C1H], the protein stability index was found to be 2.7.

Consider IALNALTTTVCLVAAALRYLQIFA [C1I], for which the protein stability index amounted to 2.86.

As for QALNALTTTVCLVAAALRYLQIFA [C1Q], the protein stability index came out at 3.13.

Regarding GALNALTTTVCLVAAALRYLQIFA [C1G], the protein stability index was 2.6.

For DALNALTTTVCLVAAALRYLQIFA [C1D], the protein stability index turned out to be 2.46.

Regarding YALNALTTTVCLVAAALRYLQIFA [C1Y], the protein stability index was 2.99.

Take RALNALTTTVCLVAAALRYLQIFA [C1R]: the protein stability index was found to be 3.14.

Regarding SALNALTTTVCLVAAALRYLQIFA [C1S], the protein stability index worked out at 3.48.

As to KALNALTTTVCLVAAALRYLQIFA [C1K], the protein stability index was found to be 3.08.

Consider FALNALTTTVCLVAAALRYLQIFA [C1F], for which the protein stability index is 4.75.

For NALNALTTTVCLVAAALRYLQIFA [C1N], the protein stability index worked out at 3.61.

Turning to CALNMLTTTVCLVAAALRYLQIFA [A5M], the protein stability index is 3.65.

With CALNILTTTVCLVAAALRYLQIFA [A5I], the protein stability index was determined as 3.46.

With CALNVLTTTVCLVAAALRYLQIFA [A5V], the protein stability index was determined as 1.92.

For CALNKLTTTVCLVAAALRYLQIFA [A5K], the protein stability index worked out at 4.99.

CALNRLTTTVCLVAAALRYLQIFA [A5R]: the protein stability index was 2.98.

With CALNTLTTTVCLVAAALRYLQIFA [A5T], the protein stability index came out at 3.6.

Take CALNCLTTTVCLVAAALRYLQIFA [A5C]: the protein stability index was determined as 3.07.

As to CALNNLTTTVCLVAAALRYLQIFA [A5N], the protein stability index was found to be 2.07.

Turning to CALNFLTTTVCLVAAALRYLQIFA [A5F], the protein stability index came to 2.29.

Consider CALNELTTTVCLVAAALRYLQIFA [A5E], for which the protein stability index was determined as 3.02.

CALNPLTTTVCLVAAALRYLQIFA [A5P]: the protein stability index turned out to be 2.7.

Take CALNYLTTTVCLVAAALRYLQIFA [A5Y]: the protein stability index was 3.68.

With CALNLLTTTVCLVAAALRYLQIFA [A5L], the protein stability index was 2.77.

Consider CALNQLTTTVCLVAAALRYLQIFA [A5Q], for which the protein stability index came out at 3.79.

Regarding CALNSLTTTVCLVAAALRYLQIFA [A5S], the protein stability index turned out to be 3.5.

For the variant CALIALTTTVCLVAAALRYLQIFA [N4I], the protein stability index was determined as 2.87.

With CALFALTTTVCLVAAALRYLQIFA [N4F], the protein stability index is 2.81.

In the case of CALAALTTTVCLVAAALRYLQIFA [N4A], the protein stability index worked out at 1.84.

As for CALEALTTTVCLVAAALRYLQIFA [N4E], the protein stability index is 2.1.

Regarding CALSALTTTVCLVAAALRYLQIFA [N4S], the protein stability index was found to be 3.62.

With CALVALTTTVCLVAAALRYLQIFA [N4V], the protein stability index worked out at 3.46.

For the variant CALKALTTTVCLVAAALRYLQIFA [N4K], the protein stability index is 2.35.

As to CALDALTTTVCLVAAALRYLQIFA [N4D], the protein stability index came out at 2.85.

Regarding CALCALTTTVCLVAAALRYLQIFA [N4C], the protein stability index came to 2.79.

As to CALWALTTTVCLVAAALRYLQIFA [N4W], the protein stability index amounted to 2.84.

For the variant CALPALTTTVCLVAAALRYLQIFA [N4P], the protein stability index is 2.66.

Take CALHALTTTVCLVAAALRYLQIFA [N4H]: the protein stability index stood at 3.53.

Consider CALTALTTTVCLVAAALRYLQIFA [N4T], for which the protein stability index amounted to 2.17.

CALGALTTTVCLVAAALRYLQIFA [N4G]: the protein stability index worked out at 2.34.

As for CALRALTTTVCLVAAALRYLQIFA [N4R], the protein stability index came to 3.01.

Take CAINALTTTVCLVAAALRYLQIFA [L3I]: the protein stability index came out at 1.61.

In the case of CAHNALTTTVCLVAAALRYLQIFA [L3H], the protein stability index came to 2.11.

Turning to CARNALTTTVCLVAAALRYLQIFA [L3R], the protein stability index came out at 2.9.

Consider CAQNALTTTVCLVAAALRYLQIFA [L3Q], for which the protein stability index was determined as 3.

Turning to CAWNALTTTVCLVAAALRYLQIFA [L3W], the protein stability index worked out at 1.62.

In the case of CAENALTTTVCLVAAALRYLQIFA [L3E], the protein stability index was determined as 3.25.

For CADNALTTTVCLVAAALRYLQIFA [L3D], the protein stability index stood at 3.27.

Take CAANALTTTVCLVAAALRYLQIFA [L3A]: the protein stability index came to 3.13.

Regarding CAFNALTTTVCLVAAALRYLQIFA [L3F], the protein stability index amounted to 3.52.

Turning to CASNALTTTVCLVAAALRYLQIFA [L3S], the protein stability index was 2.

In the case of CAKNALTTTVCLVAAALRYLQIFA [L3K], the protein stability index is 1.92.

Consider CAPNALTTTVCLVAAALRYLQIFA [L3P], for which the protein stability index amounted to 3.65.

Regarding CAVNALTTTVCLVAAALRYLQIFA [L3V], the protein stability index was 2.62.

On to CACNALTTTVCLVAAALRYLQIFA [L3C], for which the protein stability index is 4.07.

On to CATNALTTTVCLVAAALRYLQIFA [L3T], for which the protein stability index was found to be 2.98.

For CANNALTTTVCLVAAALRYLQIFA [L3N], the protein stability index was determined as 2.3.

CFLNALTTTVCLVAAALRYLQIFA [A2F]: the protein stability index was 4.07.

For CGLNALTTTVCLVAAALRYLQIFA [A2G], the protein stability index stood at 3.74.

For CMLNALTTTVCLVAAALRYLQIFA [A2M], the protein stability index came out at 2.77.

For CYLNALTTTVCLVAAALRYLQIFA [A2Y], the protein stability index was found to be 3.17.

CDLNALTTTVCLVAAALRYLQIFA [A2D]: the protein stability index stood at 4.37.

Regarding CILNALTTTVCLVAAALRYLQIFA [A2I], the protein stability index was found to be 2.77.

As for CTLNALTTTVCLVAAALRYLQIFA [A2T], the protein stability index was 4.22.

As for CQLNALTTTVCLVAAALRYLQIFA [A2Q], the protein stability index is 3.74.

As for CRLNALTTTVCLVAAALRYLQIFA [A2R], the protein stability index worked out at 3.42.

Regarding CPLNALTTTVCLVAAALRYLQIFA [A2P], the protein stability index was 3.11.

With CKLNALTTTVCLVAAALRYLQIFA [A2K], the protein stability index was 3.83.

Take CWLNALTTTVCLVAAALRYLQIFA [A2W]: the protein stability index was 2.26.

As to CNLNALTTTVCLVAAALRYLQIFA [A2N], the protein stability index was 3.43.

The record behind these values is the supplement of paper PMC10567573.
